Assay: soluble on expression in E. coli; label from the status in PepcDB or PDB records

| Sequence | soluble on expression in E. coli |
| --- | --- |
| GPGSMSSKEELAALMASDGDFEKKISLLKKAVVTVTKQKKEVEARQTQLQGELSTATQQLAEAQRANAALQRKVKSLEAQQEQERSSGSAFGQNMLKGLSSIMGNSDSANRGGARGERGSAGDRLSLSPEDVERLISENEQLHRQIYAFKTKLEDVQHSSAKDTERLKSEVARLQRETQELRRSLEANTATGDRLRADYLTERALGDFCRHFFVATLLRPQQERESFLTGTTVEVRWPAKGPSSNSAAAAFSDSLPAVVSERVTLALQSAAGTVKTLLRGVSVLAVVLQEQLPSRERATVGDLECLRDRLSVFLEAHTAKKDSLMYLLEQLDSQLSAVQHADEEGGSAPVSADAFVEAQGNIVQLVLEWVGLLRTQLPLLVESCVAILPHGNSYTMYTAHVSAGTGDGAAEPRKTTTERGEFVEEVTRHGYATLASIEGSLTAMRMLVERSPTAYYRCYNNGNRGGALPEPPTTKETLNFTSSLEATQPPMDLSSLLALQQFWWEGCTSVRSLRASILALNSGLVNVAEACNKSEIRDALNYLCKCLEAIAAASEEMYGSPRLAPADADAAIAALVPDALAPRTPAHAPPSEASSWALRPRTAIATSSTLTAEGVRDTAYADKYEELLVALSAADRAAASYYTQMNYLYVEMAEKEDALQTALEAVAHLQQLIVAERAEAKHTRQALQSQISLLSTQLVEMAGAPAAQTPQ | not soluble |
| RPAEEIIQGQIEVTEYRVSSKVPGRIKELRVSEGQQVQAGDTLAVIEAPDVAAKMEQAKAAEAAAQAQNAKALKGARSEQIQAAYEMWQKAQAGVAIATKTHQRVQNLYDQGVVPAQKLDEATAQRDAAIATQKAAEAQYNMARNGAEREDKLAASALVDRARGAVAEVESYINETYLIAPRAGEVSEIFPKAGELVGTGAPIMNIAEMGDMWASFAVRED | not soluble |
| MLAILYDRIRPDERMLFERAEALGLPYKKVYVPALPMVLGERPKELEGVTVALERCVSQSRGLAAARYLTALGIPVVNRPEVIEACGDKWATSVALAKAGLPQPKTALATDREEALRLMEAFGYPVVLKPVIGSWGRLLAKVTDRAAAEALLEHKEVLGGFQHQLFYIQEYVEKPGRDIRVFVVGERAIAAIYRRSAHWITNTARGGQAENCPLTEEVARLSVKAAEAVGGGVVAVDLFESERGLLVNEVNHTMEFKNSVHTTGVDIPGEILKYAWSLAS | soluble |
| MGSDKIHHHHHHMHSDEEIFKETTPKALLQLLKKDYYFHDYCYQEIIPRGKEIKMNNSKGFQIYLVESGYFSYCLQNEYGDSGIISFVGGEIAINLIPIIKEEPEESVLRSLTEVHCWVLDPDFVERVLDESGQKAKYLLSNLLYTRKVYFKASKRNFMKKELRIRACLKELGLYMGRVTKEKEFILPDEINNSILAQYANTTREYTNIIVLKLRKEGILDDSHKPWVIKKIDIL | not soluble |
| MTSRTPLVSVLPDFPWDSLASAKAKAASHPDGIVNLSVGTPVDPVAPSIQIALAEAAGFSGYPQTIGTPELRAAIRGALERRYNMTKLVDASLLPVVGTKEAIALLPFALGISGTVVIPEIAYPTYEVAVVAAGCTVLRSDSLFKLGPQIPSMMFINSPSNPTGKVLGIPHLRKVVKWAQENNVILAADECYLGLGWDDENPPISILDPRVCDGDHTNLIAIHSLSKTSNLASYRAGYLVGDPALIGELTEVRKNLGLMVPFPIQQAMIAALNDDDQEAGQKLTYAIRRAKLMRALLESGFQVDNSEAGLYLWATREEPCRDTVDWFAERGILVAPGDFYGPRGAQHVRVAMTETDERVDAFVSRLS | soluble |
| MNRHLIHRRDILDTLVADLQAQQPDHIAVTGDLVNIALVNEFAPARQWLESVGPADRVSLVPGNHDAYVRSTAHRFAETFPDYISGDDATPGFPYLRRREAIAIIGVSSAVPTAPLRATGWLGAPQRAALEALLQSLAGERVFKVLLIHHPLQSRSRHKRLTDAADLIALLQRHPVDLVLHGHDHVHATVRIDTPFGAIPVVGVPSASAMNDRHRPSAAYNLFKISEGNLEHHHHHH | soluble |
| MENEMKEKAVIFTGNSISHEDAKKILLANYQPPVRRFQLEKFIQQGYKVMGIIDGIFFDRAAVGHREIISALNAGVRVVGGASMGALRASELDTHGMIGVGKVYEWYRDGVIESDDEVAISTNPETFEPISVPLVNIRETLKAALGAGILSEKEYEDILELAISTYYPDRSYLGLTKEGAKKGLISEEKRKLLLDFCINSEVDVKKRDAVLVIETVKRLVEETEV | not soluble |
| TKKNELNKAHVTIALTNPKTPTNVGAVIRAAGCYQADQIIYNGNRYAQAAKYHKKTLQTDTFNMQDKIPLLQVESFIGIKDSLESIPSSAKIICVDLVEGATPLPHFIHPPEAVYIFGPEDSSVKQEVIDIADDVVYVPTVGCMNLAATVNVLLYDRLAKSL | not soluble |

From the DeepSol protein solubility set
